According to the supplement of paper PMC10567573:

B1: SOAT2 (parent)
chain: SLGKQKVFIIRKSLLDELMEVQHF
B2: CDC25A (parent)
chain: KPIVPTDGKRVIVVFHCEFSSERG

Variants of: B1
Test: protein stability index of a GFP-peptide fusion (GPS, HEK-293T) (PSI 1-6); higher = more stable
Conditions: c terminus: a fixed tail appended
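Further: lentivirally expressed fusions sorted by FACS into six bins by GFP to DsRed ratio, PSI derived from sequencing read proportions per bin multiplied by bin number.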

Protein stability index: each site, then its substitutions
G3: A 2.12; Y 2.76; M 3.27; E 1.94; V 2.97; N 2.07; F 2.29; T 2.83; I 3.27
S1: V 2; M 2.1; I 3.6; P 2.99; C 2.9; K 2.94
L14: F 2.52; N 2.26; E 2; H 2.86; C 1.85
V7: F 2.56; T 2.16; K 2; D 1.48; E 1.67; I 3.05; G 1.82; R 2.16
H23: K 1.41; R 1.66; N 2.52; C 2.69; Y 2.64; F 1.87; T 2.07
M19: G 2.23; S 2.25; Q 2.25; F 3.18; L 2.67; D 2.24; C 2.15
L18: P 1.38; A 1.46; Q 2.21; F 1.41; N 2.54; C 1.95; V 2.5; D 2.01; R 1.98; T 1.31; S 1.25
I9: T 1.84; F 2.41; Q 1.89; S 2.15; G 1.79
R11: I 2.78; M 1.53; T 2.61; Y 3.21; D 2.22; V 2.19
Q22: L 2.24; M 2.09; A 2.4; K 2.35; Y 2.55; N 2.22; W 2.77
L15: C 2.08; T 1.54; H 1.78; K 3.07; Q 1.8; Y 1.52
I10: N 1.72; L 2.38; Q 1.87; C 2.69; H 1.65
K4: N 1.78; T 2.4; S 2.25; V 2.8
D16: Q 2.44; F 2.19; H 2.86; A 1.7; R 4.61
Q5: I 2.44; T 2.23; F 3.55; Y 1.85; N 2.51; S 2.73; G 3.96
E20: Q 1.62; D 1.63; Y 2.9; C 2.19
L2: Y 2.69; R 2.42; E 1.75
V21: L 2; R 2.92; Y 2.38; C 3.18; E 1.99; I 3.07; H 2.23
S13: M 2.22; A 1.43
K6: H 1.97; Y 2.67; G 1.99; M 3.33; R 2.74
K12: T 3.09; H 3.61; R 2.75; P 1.62; D 3.43; A 2.44; M 2.13; L 2.18; Q 2.96
F8: I 2.15; G 1.93; K 1.88; Y 3.07; P 1.66; R 2.36; A 1.76
F24: Y 2.74; I 2.9; A 1.8; D 2.65; E 1.71; G 1.68; P 2.27; Q 2.75
E17: S 3.09; D 2.51; G 2.81; Y 1.85; F 2.52; K 2.17; N 2.79

Variants of: B2
Test: as above
Conditions: c terminus: a fixed tail appended

Protein stability index of substitutions, site by site:
F15: L 3.28; Y 1.72; T 2.92; C 1.68; I 2.73; E 4.32; Q 3.78; V 2.84; D 4.34; A 2.47; W 1.55; G 2.98; R 3.06; M 1.61; K 3.79; N 3.98; S 3.47; H 3.19; P 4.14
S20: T 2.79; P 1.92; M 2.43; N 1.95; D 1.68; W 2.1; K 2.76; V 1.7; Y 2.42; C 2.23; F 3.29; E 1.12; L 2.5; I 3.13; G 2.51; A 1.96; Q 1.71; R 3.53; H 2.8
V14: W 2.09; Y 2.6
E18: A 2.51; Y 2.26; N 2.34; L 1.76; M 2.38; P 2.31; Q 3.42; C 2.17; R 2.48; F 3.14; H 3.13; G 2.55; I 2.28; S 3.26; D 1.79; W 2.46; K 4; V 3.1
H16: D 2.06; L 3.13; M 4.57; S 3.2; C 2.31; G 1.76; I 2.85; N 1.87; T 3.6; V 2.32; E 1.5; R 3.3; K 1.49; F 2.41; Y 3.43; Q 1.83; A 1.79; P 2.46
G24: H 3.36; W 3.51; C 2.7; A 1.29; Q 3.67; V 2.56; Y 2.74; T 3.03; P 2.66; I 4.86; M 3.17; E 1.93; R 3.92; L 1.85; S 2.92; K 1.44; N 2.29; D 2.09
E22: V 2.03; S 3.61; C 2.52; I 2.65; G 1.99; H 2.7; L 3.4; W 2.99; D 2.61; A 2.39; P 2.64; Y 3.49; N 2.29; T 2.75; K 1.99; M 2.29; Q 1.96; F 3.5; R 2.68
C17: W 2.91; E 2.57; D 2.77; I 2.68; L 2.12; K 2.33; N 2.52; T 1.86; G 1.98; M 1.99; F 1.93; A 2.24; S 1.85; R 1.95; Q 2.32; P 2.64; Y 2.9; H 1.38; V 2.73
F19: E 2.47; K 2.18; N 2; Q 2.3; T 2.1; W 1.86; P 1.8; Y 1.89; C 1.98; D 2.41; M 2.05; I 1.65; H 1.86; V 2.19; R 2.22; L 2.32; A 1.71; G 2.15; S 2.27
S21: L 3.4; C 3.38; N 2.46; F 1.97; K 1.9; V 2.61; A 2.27; I 1.42; R 1.2; E 1.56; D 1.28; H 2.27; P 4.03; M 2.22; T 3.26
R23: Q 2.61; D 2.52; L 2.44; W 1.55; V 3.12; S 2.19; T 3.36; G 1.6; M 2.92; K 2.67; Y 2.99; N 3.72; C 2.82; P 2.35; H 1.84; I 3.36; F 3.05; E 2.14
